The record followed here is the RNAGym collection of RNA variant scans (doi:10.1093/molbev/msab373).

The labels stand for the following.
B1: Azoarcus group I ribozyme (parent)
chain: GUGCCUUGCGCCGGGAAACCACGCAAGGGAUGGUGUCAAAUUCGGCGAAACCUAAGCGCCCGCCCGGGCGUAUGGCAACGCCGAGCCAAGCUUCGGCGCCUGCGCCGAUGAAGGUGUAGAGACUAGACGGCACCCACCUAAGGCAAACGCUAUGGUGAAGGCAUAGUCCAGGGAGUGGCGAAAGUCACACAAACCGG

The variants in this data set derive from B1. In words: reverse-splicing fitness (ratio to wild type); higher = more active; in vitro selection; Mg2+ level not given. Summed up:
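An in vitro group I ribozyme library with randomized positions was T7-transcribed and gel-purified. In triplicate, 10 pmol RNA in EPPS pH 7.5 was reacted with 50 pmoles of a 30-nt RNA substrate for 1 h at 37 °C across several added MgCl2 levels (1–48 mM), then stopped with EDTA. Products were reverse transcribed from a substrate-complementary primer, PCR-amplified and sequenced (HiSeq 4000). Fitness is a variant's read proportion after selection over that before, normalised to wild type.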
With C82U A120U A145U C169G U176G, the reverse-splicing fitness was 0.0013. As for C82U A120U A145U C169G U176C, the reverse-splicing fitness stood at 0.00267. Then C82U A120U A145U C169G U176A, with 0.00182; and C82U A145C U176G, with 0.141; and C82U A145C U176C, with 0.449. The same measure for C82U A145C U176A: 0.38; for C82U A120U A145U C150U: 0.106. As for C82U A120U A145U C150A, the reverse-splicing fitness is 0.0156. Then C82U A120U A145U C150G, with 0.0184; and C82U A120U A145C C150A C169A, with 0.00144.

In the case of C82U A120U A145C C150A C169G, the reverse-splicing fitness is 0.00203. Then C82U A120U A145C C150A C169U, with 0.00232. Then C82U A145G, with 0.63; and C82U A145C, with 0.598.

For C82U A120U A145G C169U U176G, the reverse-splicing fitness was determined as 0.00155. The same measure for C82U A120U A145G C169U U176C: 0.00381; for C82U A120U A145G C169U U176A: 0.00293; for C82U A120G U176A: 0.0132. As for C82U A120G U176C, the reverse-splicing fitness came to 0.0175.

C82U A120G U176G: the reverse-splicing fitness was determined as 0.00399. For the variant C82U A120U U176A, the reverse-splicing fitness stood at 0.0428. The same measure for C82U A120U U176C: 0.0796; for C82U A120U U176G: 0.0137; for C82U A145C C150A C169A U176A: 0.0088.

C82U A145C C150A C169A U176C: the reverse-splicing fitness was 0.00505. The same measure for C82U A145C C150A C169A U176G: 0.0047; for C82U A145C C150G U176A: 0.0431; for C82U A145C C150G U176C: 0.0583. Consider C82U A145C C150G U176G, for which the reverse-splicing fitness is 0.00905.

For the variant C82U A120U C169A, the reverse-splicing fitness worked out at 0.00227. The same measure for C82U A120U C169U: 0.00737; for C82U A120U C169G: 0.00592. Consider C82U A120U A145U C150G C169U U176C, for which the reverse-splicing fitness came to 0.00297.

Regarding C82U A120U A145U C150G C169U U176G, the reverse-splicing fitness was 0.00186. Then C82U A120U A145U C150G C169U U176A, with 0.00257; and C82U A120U A145G C169A U176G, with 0.00152; and C82U A120U A145G C169A U176C, with 0.00239.

On to C82U A120U A145G C169A U176A, for which the reverse-splicing fitness is 0.0025. C82U A145C C150U C169U U176C: the reverse-splicing fitness came out at 0.00673.

For C82U A145C C150U C169U U176A, the reverse-splicing fitness was 0.0121. The same measure for C82U A145C C150U C169U U176G: 0.00478; for C82U A145C C150G: 0.0813; for C82U A145C C150U: 0.172. The same measure for C82U A145C C150A: 0.0351; for C82U A120G C169U U176C: 0.0176; for C82U A120G C169U U176G: 0.0054.

C82U A120G C169U U176A: the reverse-splicing fitness is 0.0244. C82U A120U A145G C150G C169U: the reverse-splicing fitness was 0.00613. C82U A120U A145G C150G C169A: the reverse-splicing fitness was 0.00721. Then C82U A120U A145G C150G C169G, with 0.00646. The same measure for C82U A120U A145U C169A: 0.00208. Then C82U A120U A145U C169G, with 0.00533; and C82U A120U A145U C169U, with 0.00594. In the case of C82U A145C C150U U176A, the reverse-splicing fitness stood at 0.114. For the variant C82U A145C C150U U176G, the reverse-splicing fitness turned out to be 0.0408.

Regarding C82U A145C C150U U176C, the reverse-splicing fitness worked out at 0.127. Then C82U A120U C169A U176C, with 0.00216. The same measure for C82U A120U C169A U176G: 0.00126; for C82U A120U C169A U176A: 0.00238.

On to C82U A120U A145C C150G C169U U176C, for which the reverse-splicing fitness was determined as 0.00224.

For the variant C82U A120U A145C C150G C169U U176G, the reverse-splicing fitness was determined as 0.00191. Then C82U A120U A145C C150G C169U U176A, with 0.00247.

Take C82U A120U A145U C150G C169G U176G: the reverse-splicing fitness amounted to 0.00173.

As to C82U A120U A145U C150G C169G U176C, the reverse-splicing fitness was 0.00209. Then C82U A120U A145U C150G C169G U176A, with 0.00198; and C82U A120U A145C C150U C169U U176G, with 0.0015; and C82U A120U A145C C150U C169U U176C, with 0.00187. Then C82U A120U A145C C150U C169U U176A, with 0.00232; and C82U A145C C169G U176A, with 0.0179. Then C82U A145C C169G U176G, with 0.00428. Regarding C82U A145C C169G U176C, the reverse-splicing fitness amounted to 0.00995. The same measure for C82U A120U A145C C169A U176G: 0.00159. Then C82U A120U A145C C169A U176C, with 0.0016; and C82U A120U A145C C169A U176A, with 0.00163. Then C82U A120U C150G C169A U176G, with 0.00234; and C82U A120U C150G C169A U176C, with 0.003. Take C82U A120U C150G C169A U176A: the reverse-splicing fitness was 0.00476. Then C82U A120U C150A U176A, with 0.00756. Then C82U A120U C150A U176C, with 0.0109. Then C82U A120U C150A U176G, with 0.00418; and C82U A120U C150G C169G, with 0.0055. For the variant C82U A120U C150G C169U, the reverse-splicing fitness came to 0.00386. Consider C82U A120U C150G C169A, for which the reverse-splicing fitness came out at 0.00679.
